How the values were obtained:
[1] = target: soluble envelope protein ectodomain of yellow fever virus strain Asibi with C-terminal 3C site and TwinStrep tag (yellow fever virus strain Asibi); assay: SEC-MALS
[2] = target: soluble envelope protein ectodomain of yellow fever virus strain 17D with C-terminal 3C site and TwinStrep tag (yellow fever virus strain 17D); assay: SEC-MALS

Substance: precursor peptide pr of yellow fever virus strain Asibi, canonical furin cleavage product (pr1, 9.95 kDa)
- stoichiometry N [1]: 1

Substance: precursor peptide pr of yellow fever virus strain 17D
- stoichiometry N [2]: 1

From PMC12753717
